# Measurements published in the supplement of paper PMC9732359.
# ± gives the uncertainty stated by the source.
# Test: protein stability index of a GFP-peptide fusion (yeast GPS) (PSI 1-4); higher = more stable; sorted into four equal gates, so the index is relative within each strain
# How it was run: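 The protein stability index combines read frequencies across sorting gates, each weighted by its gate number and then summed. To obtain those frequencies, a pooled yeast library of GFP fusions to tiled 17-residue yeast protein peptides, on a plasmid also expressing Cherry, was grown to mid-log phase in leucine-free medium. The cells were sorted into four equal gates by GFP/Cherry ratio before plasmid amplification by PCR and Illumina sequencing.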
sequence,measurement,setting,value
AVLNVSPVYDVDPRIIN [NUT1],protein stability index,doa10∆,2.2 ± 0.078
same,protein stability index,pdr5∆,2.29 ± 0.064
same,protein stability index,san1∆,1.82 ± 0.091
same,protein stability index,ubr1∆,2.17 ± 0.06
HISFNFSMLQMAFEASA [BRR2],protein stability index,doa10∆,1.42 ± 0.075
same,protein stability index,pdr5∆,1.45 ± 0.066
same,protein stability index,san1∆,1.41 ± 0.23
same,protein stability index,ubr1∆,1.24 ± 0.06
LEFSIYHRLSNKDMIKN [CSN12],protein stability index,doa10∆,2.36 ± 0.096
same,protein stability index,pdr5∆,2.91 ± 0.13
same,protein stability index,san1∆,2.36 ± 0.18
same,protein stability index,ubr1∆,2.79 ± 0.15
NKRLCDEIATIQSKRLR [RPS17A],protein stability index,doa10∆,2.75 ± 0.081
same,protein stability index,pdr5∆,2.94 ± 0.063
same,protein stability index,san1∆,3.1 ± 0.046
same,protein stability index,ubr1∆,3.22 ± 0.071
SVGVIINKMVGNRYLEK [RPL21A],protein stability index,doa10∆,3.01 ± 0.14
same,protein stability index,pdr5∆,3.35 ± 0.13
same,protein stability index,san1∆,2.43 ± 0.2
same,protein stability index,ubr1∆,3 ± 0.095
QKIVVVRAEELNISGEF [RPL16A],protein stability index,doa10∆,3.64 ± 0.2
same,protein stability index,pdr5∆,3.06 ± 0.21
same,protein stability index,san1∆,3.17 ± 0.16
same,protein stability index,ubr1∆,3.28 ± 0.19
SITLQGDVYDPEGTLSG [SMC2],protein stability index,doa10∆,2.76 ± 0.16
same,protein stability index,pdr5∆,2.6 ± 0.13
same,protein stability index,ubr1∆,2.28 ± 0.12
KLYVSHIQVNQAPKQRR [RPL17A],protein stability index,doa10∆,1.89 ± 0.079
same,protein stability index,pdr5∆,1.92 ± 0.068
same,protein stability index,san1∆,2.02 ± 0.14
same,protein stability index,ubr1∆,2.08 ± 0.11
LKGEIEDYPMSSEIKIY [SIR4],protein stability index,doa10∆,1.33 ± 0.15
same,protein stability index,san1∆,3.25 ± 0.18
same,protein stability index,ubr1∆,1.64 ± 0.2
YLKFIPLKRAIWLIKCC [SRB8],protein stability index,doa10∆,2.51 ± 0.095
same,protein stability index,pdr5∆,1.86 ± 0.069
same,protein stability index,san1∆,2.19 ± 0.16
same,protein stability index,ubr1∆,2.16 ± 0.057
SKGYPIQFLTIGAGVPS [FAS1],protein stability index,doa10∆,1.4 ± 0.032
same,protein stability index,pdr5∆,1.64 ± 0.045
same,protein stability index,san1∆,1.34 ± 0.061
same,protein stability index,ubr1∆,1.34 ± 0.036
CYQFAEYLFKPQLISDK [ARP7],protein stability index,doa10∆,2.38 ± 0.06
same,protein stability index,pdr5∆,2.14 ± 0.049
same,protein stability index,san1∆,2.2 ± 0.064
same,protein stability index,ubr1∆,2.11 ± 0.04
KRMLLSLSEFARRRQPT [SNF2],protein stability index,doa10∆,2.26 ± 0.15
same,protein stability index,pdr5∆,2.63 ± 0.13
same,protein stability index,san1∆,1.77 ± 0.25
same,protein stability index,ubr1∆,2.58 ± 0.092
ETAKKITFHPKIRARSI [SMC2],protein stability index,doa10∆,2.91 ± 0.058
same,protein stability index,pdr5∆,2.95 ± 0.06
same,protein stability index,san1∆,2.92 ± 0.045
same,protein stability index,ubr1∆,2.85 ± 0.05
SKFTKIPPTFDKGAVGP [MED4],protein stability index,doa10∆,3.17 ± 0.072
same,protein stability index,pdr5∆,3.29 ± 0.079
same,protein stability index,san1∆,3.33 ± 0.076
same,protein stability index,ubr1∆,3.08 ± 0.11
SKKRFAAIWTLCKTKMV [RPO21],protein stability index,doa10∆,1.75 ± 0.048
same,protein stability index,pdr5∆,1.53 ± 0.049
same,protein stability index,san1∆,1.24 ± 0.099
same,protein stability index,ubr1∆,1.57 ± 0.032
FSFGTSQPNNTPSFSFG [YLR335W/NUP2],protein stability index,doa10∆,2.81 ± 0.048
same,protein stability index,pdr5∆,2.73 ± 0.047
same,protein stability index,san1∆,2.88 ± 0.053
same,protein stability index,ubr1∆,2.59 ± 0.037
QSLELMIYDDAHEISQG [BRR2],protein stability index,doa10∆,2.73 ± 0.04
same,protein stability index,pdr5∆,2.92 ± 0.037
same,protein stability index,san1∆,2.86 ± 0.037
same,protein stability index,ubr1∆,3.02 ± 0.035
QRKNGVTNSPLFQTIEK [ECM29],protein stability index,doa10∆,3.29 ± 0.16
same,protein stability index,pdr5∆,3.1 ± 0.14
same,protein stability index,san1∆,2.19 ± 0.28
same,protein stability index,ubr1∆,3.11 ± 0.086
KGTNGKKALKVRTSATF [RPL25],protein stability index,doa10∆,3.15 ± 0.13
same,protein stability index,pdr5∆,3.03 ± 0.12
same,protein stability index,san1∆,3.06 ± 0.13
same,protein stability index,ubr1∆,3.3 ± 0.068
EDTNLAAIHAKRVTIQK [HHT1],protein stability index,doa10∆,2.88 ± 0.078
same,protein stability index,pdr5∆,3.04 ± 0.099
same,protein stability index,san1∆,2.97 ± 0.059
same,protein stability index,ubr1∆,2.92 ± 0.056
AANEGTAVSFVSAAEDE [PRP28],protein stability index,doa10∆,2.96 ± 0.24
same,protein stability index,pdr5∆,3.46 ± 0.23
same,protein stability index,san1∆,3.01 ± 0.19
KSLEEQEYAIEMKIGSI [SMC1],protein stability index,doa10∆,2.71 ± 0.11
same,protein stability index,pdr5∆,3.23 ± 0.18
same,protein stability index,san1∆,2.67 ± 0.11
same,protein stability index,ubr1∆,2.66 ± 0.2
KLKEYLDLVARTATLSN [YDL116W/NUP84],protein stability index,doa10∆,2.63 ± 0.23
same,protein stability index,pdr5∆,2.88 ± 0.16
same,protein stability index,san1∆,2.99 ± 0.1
same,protein stability index,ubr1∆,2.74 ± 0.15
DERIEKELNTERQIFLE [CDC53],protein stability index,doa10∆,2.9 ± 0.1
same,protein stability index,pdr5∆,3.09 ± 0.12
same,protein stability index,san1∆,3.13 ± 0.097
same,protein stability index,ubr1∆,3.12 ± 0.086
VDFIKHSLSQAIKWDGS [PRE3],protein stability index,doa10∆,1.75 ± 0.15
same,protein stability index,pdr5∆,2.29 ± 0.12
same,protein stability index,san1∆,1.61 ± 0.26
same,protein stability index,ubr1∆,2.48 ± 0.2
QVVTDYNILGNLGIPKI [SSN2],protein stability index,doa10∆,2.51 ± 0.069
same,protein stability index,pdr5∆,2.96 ± 0.072
same,protein stability index,san1∆,2.37 ± 0.1
same,protein stability index,ubr1∆,2.27 ± 0.06
EKSKALESEIASSSAKL [SMC2],protein stability index,doa10∆,2.64 ± 0.071
same,protein stability index,pdr5∆,2.96 ± 0.078
same,protein stability index,san1∆,3.03 ± 0.043
same,protein stability index,ubr1∆,2.97 ± 0.075
DIICEDSTLILEQLAQH [RPB2],protein stability index,doa10∆,2.24 ± 0.047
same,protein stability index,pdr5∆,2.56 ± 0.057
same,protein stability index,san1∆,2.57 ± 0.084
same,protein stability index,ubr1∆,2.35 ± 0.051
SSEIDRENVKSKDEPVS [SIR4],protein stability index,doa10∆,3.13 ± 0.15
same,protein stability index,pdr5∆,3.33 ± 0.12
same,protein stability index,san1∆,2.92 ± 0.082
same,protein stability index,ubr1∆,3.27 ± 0.086
DDVLQTIITDCAFLLTK [YJL039C/NUP192],protein stability index,doa10∆,1.76 ± 0.057
same,protein stability index,pdr5∆,2.08 ± 0.062
same,protein stability index,san1∆,1.79 ± 0.098
same,protein stability index,ubr1∆,2.34 ± 0.047
KAEYVDQYDAERDFYHS [RPO31],protein stability index,doa10∆,2.75 ± 0.061
same,protein stability index,pdr5∆,2.97 ± 0.1
same,protein stability index,san1∆,3.23 ± 0.097
same,protein stability index,ubr1∆,3.16 ± 0.06
TPNVNVLVLHGDKDTRA [ISW2],protein stability index,doa10∆,2.63 ± 0.05
same,protein stability index,pdr5∆,2.36 ± 0.05
same,protein stability index,san1∆,2.32 ± 0.08
same,protein stability index,ubr1∆,2.81 ± 0.05
DYPDDSGWTPFHIACSV [NAS6],protein stability index,doa10∆,3.37 ± 0.11
same,protein stability index,pdr5∆,2.28 ± 0.099
same,protein stability index,san1∆,2.48 ± 0.12
same,protein stability index,ubr1∆,2.27 ± 0.29
GYDPALLNILSGLPTCD [RPN2],protein stability index,doa10∆,2.79 ± 0.083
same,protein stability index,pdr5∆,2.91 ± 0.11
same,protein stability index,san1∆,2.39 ± 0.078
same,protein stability index,ubr1∆,2.55 ± 0.1
RIKNEQSALSQIIRLFY [ISW2],protein stability index,doa10∆,3.08 ± 0.1
same,protein stability index,pdr5∆,3.09 ± 0.1
same,protein stability index,san1∆,2.76 ± 0.076
same,protein stability index,ubr1∆,3.06 ± 0.073
PKSLNSNININVNNNNI [SWI1],protein stability index,doa10∆,3.03 ± 0.14
same,protein stability index,pdr5∆,2.63 ± 0.12
same,protein stability index,san1∆,3.04 ± 0.066
same,protein stability index,ubr1∆,2.81 ± 0.098
INIQKYNNNTIRKLLEK [CSI1],protein stability index,doa10∆,2.85 ± 0.25
same,protein stability index,pdr5∆,2.51 ± 0.17
same,protein stability index,ubr1∆,2.54 ± 0.11
EATQDDDFDMLFGENDT [NUT1],protein stability index,doa10∆,2.92 ± 0.071
same,protein stability index,pdr5∆,3.13 ± 0.06
same,protein stability index,san1∆,3.06 ± 0.065
same,protein stability index,ubr1∆,3.04 ± 0.062
ALAGGKKSKKKWSKKSM [RPS25A],protein stability index,doa10∆,3.45 ± 0.12
same,protein stability index,pdr5∆,3.42 ± 0.17
same,protein stability index,san1∆,3.23 ± 0.16
same,protein stability index,ubr1∆,3.63 ± 0.09
IFNFDQLVEITEQIKMR [SRB8],protein stability index,doa10∆,1.59 ± 0.1
same,protein stability index,pdr5∆,1.6 ± 0.082
same,protein stability index,san1∆,1.66 ± 0.14
same,protein stability index,ubr1∆,1.48 ± 0.057
RSPLVTPMDESSYDLLF [SRP72],protein stability index,doa10∆,2.71 ± 0.13
same,protein stability index,pdr5∆,3.06 ± 0.1
same,protein stability index,san1∆,3.29 ± 0.12
same,protein stability index,ubr1∆,3.2 ± 0.08
PGRIDRKILFENPDLST [RPT2],protein stability index,pdr5∆,3.52 ± 0.28
same,protein stability index,san1∆,3.35 ± 0.14
same,protein stability index,ubr1∆,3.37 ± 0.056
EKKPASKAPAEKKPAAK [HTB1],protein stability index,doa10∆,3.13 ± 0.08
same,protein stability index,pdr5∆,3.19 ± 0.063
same,protein stability index,san1∆,3 ± 0.059
same,protein stability index,ubr1∆,3.11 ± 0.054
EKEEEAKEESDDDMGFG [RPP2B],protein stability index,doa10∆,3.05 ± 0.2
same,protein stability index,pdr5∆,3.29 ± 0.14
same,protein stability index,san1∆,2.84 ± 0.15
same,protein stability index,ubr1∆,3.43 ± 0.07
ALLQRLKTNGKQNNKDF [MTW1],protein stability index,doa10∆,2.97 ± 0.1
same,protein stability index,pdr5∆,3.33 ± 0.14
same,protein stability index,san1∆,3.04 ± 0.13
same,protein stability index,ubr1∆,2.28 ± 0.091
KIRMLTQAAEFLSPYIS [IRR1],protein stability index,doa10∆,1.84 ± 0.04
same,protein stability index,pdr5∆,2.46 ± 0.047
same,protein stability index,san1∆,1.74 ± 0.074
same,protein stability index,ubr1∆,2.23 ± 0.045
ICSCVNRGVKLEIVYGY [RPP1],protein stability index,doa10∆,2.38 ± 0.1
same,protein stability index,pdr5∆,2.63 ± 0.063
same,protein stability index,san1∆,2.43 ± 0.08
same,protein stability index,ubr1∆,2 ± 0.049
LSIPGKSTPEGTLWAHV [SNU114],protein stability index,doa10∆,2.91 ± 0.065
same,protein stability index,pdr5∆,3.09 ± 0.064
same,protein stability index,san1∆,2.9 ± 0.059
same,protein stability index,ubr1∆,3.03 ± 0.04
EAGVTDVKVSISHDDLQ [FAS2],protein stability index,doa10∆,2.77 ± 0.049
same,protein stability index,pdr5∆,2.72 ± 0.038
same,protein stability index,san1∆,2.74 ± 0.061
same,protein stability index,ubr1∆,2.85 ± 0.047
VRVRTTKIPQIGDKFAS [RPB2],protein stability index,doa10∆,2.55 ± 0.068
same,protein stability index,pdr5∆,2.68 ± 0.072
same,protein stability index,san1∆,3.13 ± 0.064
same,protein stability index,ubr1∆,2.66 ± 0.035
HIVYSLLVNPDIDLETY [YML103C/NUP188],protein stability index,doa10∆,2.52 ± 0.049
same,protein stability index,pdr5∆,2.34 ± 0.042
same,protein stability index,san1∆,2.52 ± 0.062
same,protein stability index,ubr1∆,2.45 ± 0.035
